In article PMC4201290, “Wilms tumor protein recognizes 5-carboxylcytosine within a specific DNA sequence”:

B1: crystal oligo Egr1 5mC/5mC (dsDNA)
DNA 1: AGCGTGGGCGT
DNA 2: TACGCCCACGC
modifications: 5mC in both strands of the 3' GCG
B2: crystal oligo Egr1 5hmC/5hmC (dsDNA)
DNA 1: AGCGTGGGCGT
DNA 2: TACGCCCACGC
modifications: 5hmC in both strands of the 3' GCG
B3: crystal oligo Egr1 5fC/5fC (dsDNA)
DNA 1: AGCGTGGGCGT
DNA 2: TACGCCCACGC
modifications: 5fC in both strands of the 3' GCG

These binders were tested against Egr1/Zif268 ZnF1-3 (Homo sapiens, UniProt P18146) (assay: X-ray crystallography; Zn2+; FP: 5 nM FAM-dsDNA, 300 mM NaCl (200 mM in Fig 4E), 20 mM Tris-HCl pH 7.5, 5% glycerol, 0.5 mM TCEP, 25 C, 10 min).

Binding result, binds:
B1, B2, B3
